According to article PMC4534193, “Binding of the Lactococcal Drug Dependent Transcriptional Regulator LmrR to Its Ligands and Responsive Promoter Regions” (PLoS ONE, 2015):
pKd: −log10 of the molar value.

Experiments:
[1] = molecular target: T1, LmrR-Strep (Lactococcus lactis) (UniProt A2RI36); test: MST; conditions: MST: 20 mM Tris-HCl pH 8.0, 1 mM EDTA, 50 nM Cy5-DNA, 30 min incubation at 30 C; 30% LED, 40% laser power (30% laser for PlmrR); Hill fit
T1 sequence: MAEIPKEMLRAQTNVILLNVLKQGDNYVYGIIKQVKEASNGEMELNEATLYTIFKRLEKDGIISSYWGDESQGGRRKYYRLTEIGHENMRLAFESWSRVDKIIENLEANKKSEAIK

[2] = tested on: LmrR-Strep (Lactococcus lactis); test: MST; conditions: apparent Kd, MST: 20 mM Tris-HCl pH 8.0, 1 mM EDTA, 50 nM Cy5-DNA, 30 min incubation at 30 C, 30% LED, 40% laser power (30% laser for PlmrR), Hill fit

ACTACTTTACATTAAATTGAATTTTCAATTTCATTTTACTTCAAAATAATTTCAATAAATTTTTTGAGAAGATAATTATAACATTATTTTTTTTAGTAAACAAGCATTAATTGTTAATGCTGTTAAAGATTACAATAGTTAGTTTCATAAATGGTAAACTAACAAAAATATTGTAACGCTTTTTAAAGTTTAAGTCAACGATTTACGACGTTATTTGTATCTTCTTATGTTTTTATAAATTTAGAATTTAAAGTAAGGAATGAATCG (double strand) [PlmrCD no PadR (half of PadR motif deleted)]
binding [1]: no binding

CTCCTTGTTTTAGGACATTGAGCAAAATTACATTGGTTTGGGCTCGTAACATTTCTTTTGGTATTTCTGCCATTCTTTTTCCTTTCTATCATTTTAAACAAAGTATATTATACTTCACATTACTATGTAAGTCAAGGTACTTAAACTATTTATATAATATTTTATTTTTGACGACTTTCTACTATATAAGATAAGAAAAAATCATCTCCG (double strand) [PlmrR (lmrR promoter/operator region)]
pKd [1]: 5.85

PlmrCD (lmrCD promoter/operator region)
pKd ([2]; 50 uM riboflavin): 6.71 | pKd ([2]; no riboflavin, Hill coefficient 1.78 +/- 0.17): 7.09

PlmrCD -62bp
pKd ([2]; no riboflavin): 7.21

PlmrR (lmrR promoter/operator region)
pKd ([2]; 50 uM riboflavin, 30% laser power): 5.29 | pKd ([2]; no riboflavin, Hill coefficient 2.43 +/- 0.19, 30% laser power): 5.85

TTCTAGAGTTAAATAATGTAAACTACTTTACATTAAATTGAATTTTCAATTTCATTTTACTTCAAAATAATTTCAATAAATTTTTTGAGAAGATAATTATAACATTATTTTTTTTAGTAAACAAGCATTAATTGTTAATGCTGTTAAAGATTACAATAGTTAGTTTCATAAATGGTAAACTAACAAAAATATTGTAACGCTTTTTAAAGTTTAAGTCAACGATTTACGACGTTATTTGTATCTTCTTATGTTTTTATAAATTTAGAATTTAAAGTAAGGAATGAATCG (double strand) [PlmrCD -62bp]
pKd [1]: 7.21
